Data on one protein can be found in publication PMC12840758, “The Cold Shock Protein CspB from Mycobacterium tuberculosis Binds to MTS0997 sRNA and MTS1338 sRNA as a Dimer” (International Journal of Molecular Sciences, 2026).

The series concerns the molecule itself. Put plainly: SEC; Superdex 75 Increase 10/300 GL, 200 mM NaCl, 50 mM Tris-HCl pH 8.0; 1 mg/mL, 100 uL injected, 0.5 mL/min; calibrated with monomeric globular proteins of 45.8, 24.8, 15.4 and 7.3 kDa. On the technique in general: In gel filtration, larger molecules generally elute earlier.

B1: Cold shock protein CspB from Mycobacterium tuberculosis (natural protein)
chain: MPTGKVKWYDPDKGFGFLSQEGGEDVYVRSSALPTGVEALKAGQRVEFGIASGRRGPQALSLRLIEPPPSLSRPRREPAAEHKHSPDELHGMVEDMITLLESTVQPELRKGRYPDRKTARRVAEVVRAVAREFES
notes: Removal of the C-terminal His6 tag is not mentioned; also called MtbCspB; M. tuberculosis CspB
One may read the stoichiometry N as the number of molecules, sites or subunits per partner or assembly. Turning to B1, the “stoichiometry N” value amounted to 2.
